{"source": "paper PMC9363410", "key": {"[1]": {"target": "OsOTUB1-cat (OsOTUB1 residues 74 to 324, catalytic domain) (Oryza sativa)"}, "[2]": {"target": "OsOTUB1-cat (OsOTUB1 residues 74 to 324, catalytic domain) (Oryza sativa)", "assay": "cross-linking; 20 µM DUB with 100 µM Ub-PA in gel filtration buffer (50 mM Tris-HCl pH 8, 150 mM NaCl, 2 mM DTT), 37 °C, samples at time points, SDS-PAGE, Coomassie"}}}
{"substance": "Met1-diUb Q2E^prox (from UniProt P0CG48 1-76) (natural protein)", "values": [{"measurement": "KM of OsOTUB1-cat for the variant, fold reduction of affinity against Met1-diUb WT (Michaelis-Menten kinetics by HPLC, two replicates)", "setting": "[1]", "value": "4.2 to 6.23", "unit": "fold"}]}
{"substance": "Met1-diUb Q2N^prox (from UniProt P0CG48 1-76) (natural protein)", "values": [{"measurement": "KM of OsOTUB1-cat for the variant, fold reduction of affinity against Met1-diUb WT (Michaelis-Menten kinetics by HPLC, two replicates)", "setting": "[1]", "value": "1.52 to 1.91", "unit": "fold"}]}
{"substance": "C-terminally propargylated Ub (Ub-PA)", "values": [{"measurement": "percent of Ub-PA crosslinked in 1 min", "setting": "[2]", "value": "> 90", "unit": "%"}]}
{"substance": "Met1-diUb Q2H^prox (from UniProt P0CG48 1-76) (natural protein)", "values": [{"measurement": "KM of OsOTUB1-cat for the variant, fold reduction of affinity against Met1-diUb WT (Michaelis-Menten kinetics by HPLC, two replicates)", "setting": "[1]", "value": "1.45 to 1.58", "unit": "fold"}]}
{"substance": "Met1-diUb Q2A^prox (from UniProt P0CG48 1-76) (natural protein)", "values": [{"measurement": "KM of OsOTUB1-cat for the variant, fold reduction of affinity against Met1-diUb WT (Michaelis-Menten kinetics by HPLC, two replicates)", "setting": "[1]", "value": "3.65 to 4.3", "unit": "fold"}]}
